One molecule from US20240368309A1 (Hoffmann-La Roche, published 2024) can be followed below.

The koff is a measure of how fast the partners let go of each other.

The experiment has as its target T1, biotinylated monovalent EpCAM-Fc (human EpCAM ECD-Fc knob avi-his paired with Fc hole) (human, UniProt P01857 104-328 = IgG part, biotin on the avi tag (BirA co-expression)).
T1 construct: also called monovalent EpCAM-Fc construct; huEPCAM-Fc-knob (avi-His) + Fc hole (wt)
The experiment in a line: SPR ProteOn XPR36 off-rate, biotinylated monovalent EpCAM-Fc on NLC chip.

B1: parental murine anti-human EpCAM antibody MOC31 (antibody, V domains shown)
VH: QVQLQQSGPELKKPGETVKISCKASGYTFTNYGMNWVKQAPGRGLKWMGWINTYTGESTYADDFKGRFAFSLETSASAAYLQINNLKNEDTATYFCARFAIKGDYWGQGTTLTVSS
VL: DIVMTQSAFSNPVTLGTSASISCRSTKSLLHSNGITYLYWYLQKPGQSPQLLIYQMSNLASGVPDRFSSSGSGTDFTLRISRVEAEDVGVYYCAQNLEIPRTFGGGTKLEIK
In turn, B1 registered a koff of 0.00024 s⁻¹.
